From publication PMC2566588 come the findings set out here.

The target of this assay is CXCR4CFP (human) (UniProt P61073). Kind of assay: FRET or BRET; sensitized-emission FRET imaging as above; cells treated with chemokines (CCL3/MIP1α, CCL5/RANTES or CXCL12/SDF-1) for 20 min before imaging; N-FRET on the plasma membrane against the unstimulated control. In general terms: Bioluminescence resonance energy transfer reports proximity on the nanometre scale.
CXCR4CFP (human), sequence (P61073 whole entry): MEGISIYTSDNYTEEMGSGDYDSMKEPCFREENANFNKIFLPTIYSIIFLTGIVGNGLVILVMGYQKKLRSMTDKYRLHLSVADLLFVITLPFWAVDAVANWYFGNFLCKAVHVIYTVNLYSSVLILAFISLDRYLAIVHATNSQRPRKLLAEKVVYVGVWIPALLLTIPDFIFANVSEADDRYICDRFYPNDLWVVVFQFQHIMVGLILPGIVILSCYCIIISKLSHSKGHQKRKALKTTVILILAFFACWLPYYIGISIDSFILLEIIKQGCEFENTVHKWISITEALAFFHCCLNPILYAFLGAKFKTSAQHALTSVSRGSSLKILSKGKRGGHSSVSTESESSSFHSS

CCR5YFP, P51681 1-352 (receptor; other documents disagree on this pair), sequence (P51681 whole entry): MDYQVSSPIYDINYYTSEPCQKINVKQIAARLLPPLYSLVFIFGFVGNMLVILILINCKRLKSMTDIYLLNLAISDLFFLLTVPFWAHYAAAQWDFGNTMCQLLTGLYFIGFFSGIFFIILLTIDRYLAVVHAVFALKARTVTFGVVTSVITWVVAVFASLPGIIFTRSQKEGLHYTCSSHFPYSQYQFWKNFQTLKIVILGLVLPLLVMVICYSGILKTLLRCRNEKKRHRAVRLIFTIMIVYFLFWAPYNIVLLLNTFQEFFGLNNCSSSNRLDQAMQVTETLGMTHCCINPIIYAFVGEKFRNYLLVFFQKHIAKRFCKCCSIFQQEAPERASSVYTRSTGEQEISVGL

Take “CCR5YFP, P51681 1-352 (receptor; other documents disagree on this pair)”: the increase of N-FRET with CCL3/MIP1α against the unstimulated control stood at 30% and the increase of N-FRET with CCL5/RANTES against the unstimulated control worked out at 30%.
